Measurements reported in patent publication US20240317844A1.

Biological target: survivin (UniProt O15392)
Experiment: method not stated

B1: mAb 2C2E7 (antibody, V domains shown)
VH: QIQLVQSGPELKKPGETVKISCKASGYTFTTYGMSWVKQAPGRGLKWMGWINPYSGVPTYAVDFKGRFAFSLETSASTAYLQINNLKNEDTATYFCARGGRRGDFGYWGQGTTLTVSS
VL: QIGLTQSPAIMSASPGEKVTMTCSASSSISYMHWYQQKPGTSPKTWIYDTSKLASGVPARFSGSGSGTSYSLTISSMEAEDAATYYCHQRSSHHTFGGGTKLEIK
Kd: 0.56 nM
